Reference: publication PMC11253609, “Ancient nitrogenases are ATP dependent” (mBio, 2024)

T1: Extant Strep-NifD2K2 (dinitrogenase, MoFe protein), Azotobacter vinelandii strain DJ2102 (Azotobacter vinelandii) (UniProt P07328)
T1 sequence 1: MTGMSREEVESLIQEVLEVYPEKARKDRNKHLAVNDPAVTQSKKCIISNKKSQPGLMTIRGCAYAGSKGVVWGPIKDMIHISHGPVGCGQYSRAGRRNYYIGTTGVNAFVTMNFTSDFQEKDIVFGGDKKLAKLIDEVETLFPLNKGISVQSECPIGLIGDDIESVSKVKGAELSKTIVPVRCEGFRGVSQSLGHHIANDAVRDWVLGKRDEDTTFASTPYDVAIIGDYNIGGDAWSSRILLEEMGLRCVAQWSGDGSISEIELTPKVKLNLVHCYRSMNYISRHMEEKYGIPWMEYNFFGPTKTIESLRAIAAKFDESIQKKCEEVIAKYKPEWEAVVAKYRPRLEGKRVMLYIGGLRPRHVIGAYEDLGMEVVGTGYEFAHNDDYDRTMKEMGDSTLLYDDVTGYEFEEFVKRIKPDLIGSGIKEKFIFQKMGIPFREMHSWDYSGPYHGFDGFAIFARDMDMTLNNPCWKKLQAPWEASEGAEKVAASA
T1 sequence 2: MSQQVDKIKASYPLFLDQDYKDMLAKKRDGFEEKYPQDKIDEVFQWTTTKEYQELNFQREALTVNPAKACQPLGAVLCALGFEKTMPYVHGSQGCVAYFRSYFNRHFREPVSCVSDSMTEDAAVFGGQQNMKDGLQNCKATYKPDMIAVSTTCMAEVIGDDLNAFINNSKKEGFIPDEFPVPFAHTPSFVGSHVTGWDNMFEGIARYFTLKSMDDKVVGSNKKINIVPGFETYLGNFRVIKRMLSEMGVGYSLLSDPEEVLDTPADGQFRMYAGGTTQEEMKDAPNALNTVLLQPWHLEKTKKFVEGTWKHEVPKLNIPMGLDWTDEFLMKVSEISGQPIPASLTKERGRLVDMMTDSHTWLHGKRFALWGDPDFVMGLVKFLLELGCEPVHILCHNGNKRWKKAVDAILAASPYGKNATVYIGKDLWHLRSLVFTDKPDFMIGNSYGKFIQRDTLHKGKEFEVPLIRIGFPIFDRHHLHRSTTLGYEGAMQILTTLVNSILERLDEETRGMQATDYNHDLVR

T2: Extant Strep-II-tagged NifD (nitrogenase molybdenum-iron protein alpha chain), Azotobacter vinelandii strain … (Azotobacter vinelandii, UniProt P07328 1-492)
T2 construct: nitrogenase molybdenum-iron protein alpha chain NifD, Azotobacter vinelandii, UniProtKB P07328; expressed from the A. vinelandii genome; The end that carries the Strep-II tag is stated only for the ancestral NifD (N-terminus); also called Strep-II-tagged WT NifD; D subunit
T2 sequence (looked up): T1 sequence 1

B1: Extant NifK (nitrogenase molybdenum-iron protein beta chain), Azotobacter vinelandii strain DJ2102 (enzyme, UniProt P07329 1-523, looked up)
chain: T1 sequence 2
notes: nitrogenase molybdenum-iron protein beta chain NifK, Azotobacter vinelandii, UniProtKB P07329; also called K subunit

What was measured:
[1] = biological target: T1, Extant Strep-NifD2K2 (dinitrogenase, MoFe protein), Azotobacter vinelandii strain DJ2102 (Azotobacter vinelandii)
[2] = biological target: T2, Extant Strep-II-tagged NifD …; test: co-purification (Strep-Tactin affinity chromatography) with densitometry of SDS-PAGE bands; Strep-II-tagged NifD captured on Strep-Tactin from A. vinelandii cells; NifK found with it on SDS-PAGE (Coomassie blue); anaerobic handling; conditions: partners not purified

Molecule	inorganic phosphate released per electron transferred (Pi/e- ratio) during N2 reduction, 2 min under 1 atm N2; 0.42 µM NifD2K2 and 8.4 µM NifH2, 10 mM MgATP [1] [ATP/e-]	stoichiometry N [2]
Extant NifH2 (dinitrogenase reductase, nitrogenase iron protein 1), Azotobacter vinelandii strain DJ884 (from UniProt P00459 2-290) (enzyme)	2.8	
B1		0.93 D:K
